Reference: patent US20250361321A1 (Memorial Sloan Kettering, published 2025)
Numbering of substitutions follows the chain as printed.

Legend:
[1] = target: T1, N30 mutant MUC16-C114-GFP fusion protein expressed on HEK293 cells (HEK293-MUC16mut) (human); test: FACS, scFv phage on HEK293-MUC16mut cells
T1 construct: The GFP signal of this line was weaker than that of the WT line (26x against 170x MFI increase); also called MUC16c114 N30A; not shown: GFP fusion partner
T1 chain: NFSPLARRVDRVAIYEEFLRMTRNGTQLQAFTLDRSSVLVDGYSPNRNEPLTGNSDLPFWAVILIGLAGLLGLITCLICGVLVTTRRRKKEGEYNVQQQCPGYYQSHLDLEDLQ
Experimental: (§1) 540 phage clones identified from the cell panning were then tested by FACS analysis for binding to HEK293-MUC16WT cells. Briefly, 0.2 million cells (in PBS+5% FBS+0.05% NaN₃) were incubated for 2 h at 4° C. with 50 μl of ˜[…] pfu/mL phage in PBS. FACS was carried out using primary antibody mouse anti-M13 mAb (Thermo #MAI-12900) and secondary antibody PE anti-mouse IgG (Vectors Lab #EI-2007).
(§2) The 40 MUC16 specific clones were tested for their binding to HEK293-MUC16WT. HEK293-MUC16mut, and parental HEK293 cells. […] These clones were thus specific for the N-glycosylation site (N30).

[2] = target: T2, wildtype MUC16-C114-GFP fusion protein expressed on HEK293 cells (HEK293-MUC16WT) (human); test: FACS, scFv phage on HEK293-MUC16WT cells (FIG. 5)
T2 construct: not shown: GFP fusion partner
T2 chain: T1 chain with A30N
Experimental: as §1, §2

[3] = target: T3, human MUC16 as expressed on MUC16+ cancer cell lines (OVCAR3, SKOV8, OVCA432) (human); test: FACS on MUC16+ OVCAR3 cells, BsAb followed by a secondary antibody, against secondary antibody alone
T3 construct: This is endogenous MUC16 on ovarian cancer cell lines; also called hMUC16; Mucin-16
Experimental: In this example, the specificity of the anti-MUC16 BsAbs for binding to cancer cells that express MUC16 was assessed. In one study, two target cell lines were employed, a MUC16⁺ OVCAR3 cell line and a MUC16 SKOV3 cell line. OVCAR3 and SKOV3 cell lines were obtained through the American Type Culture Collection (ATCC®, Manassas, VA) and sustained in culture according to the ATCC® literature. FACS analysis of anti-MUC16 antibody binding to the two target cell lines was performed to confirm that antibody binding was observed only with the MUC16+ OVCAR3 cell line. SKOV3 or OVCAR3 cell lines were incubated with the anti-MUC16 Ab followed by a secondary antibody or with a secondary antibody alone as a control.

B1: anti-MUC16 clone 8 scFv antibody phage clone (scFv)
scFv: DIQLTQSPSAVSASVGDRVTITCRASQDVSKWLAWYQQKPGKAPRLLISAASGLQSWVPSRFSGSGSGTEFTLSISSLQPEDFATYYCQQANSFPWTFGQGTKVEIKRSRGGGGSGGGGSGGGGSLEMAQVQLQQWGAGLLKPSETLSLTCAVYGGSFSGYYWSWIRQPPGKGLEWIGEINHSGSTNYNPSLKSRVTISVDTSKNQFSLKLSSVTAADTAVYYCARQSYITDSWGQGTLVTVSS
notes: The phage coat fusion is not described
[1]
  binding result: no binding
[2]
  binding result: binds

B2: anti-MUC16 clone 8 BsAb (Clone 8/anti-CD3 bispecific antibody) (bispecific antibody)
chain: DIQLTQSPSAVSASVGDRVTITCRASQDVSKWLAWYQQKPGKAPRLLISAASGLQSWVPSRFSGSGSGTEFTLSISSLQPEDFATYYCQQANSFPWTFGQGTKVEIKRSRGGGGSGGGGSGGGGSLEMAQVQLQQWGAGLLKPSETLSLTCAVYGGSFSGYYWSWIRQPPGKGLEWIGEINHSGSTNYNPSLKSRVTISVDTSKNQFSLKLSSVTAADTAVYYCARQSYITDSWGQGTLVTVSSTSGGGGSDVQLVQSGAEVKKPGASVKVSCKASGYTFTRYTMHWVRQAPGQGLEWIGYINPSRGYTNYADSVKGRFTITTDKSTSTAYMELSSLRSEDTATYYCARYYDDHYCLDYWGQGTTVTVSSGEGTSTGSGGSGGSGGADDIVLTQSPATLSLSPGERATLSCRASQSVSYMNWYQQKPGKAPKRWIYDTSKVASGVPARFSGSGSGTDYSLTINSLEAEDAATYYCQQWSSNPLTFGGGTKVEIKHHHHHH
notes: It was secreted from CHO cells; also called clone 8 bispecific antibody; anti-MUC16 clone & BsAb
[3]
  MFI increase in binding over the control cells: ~300 × (fold MFI)

B3: anti-MUC16 clone 12 scFv antibody phage clone (scFv)
scFv: NFMLTQPHSVSESPGKTVTISCTRSRGSIASAYVQWYQQRPGSAPITVIYEDYERPSEIPDRFSGSIDSSSNSASLTISGLKTEDEADYYCQSYDDNDHVIFGGGTKVTVLGSRGGGGSGGGGSGGGGSLEMAQVQLQQWGAGLLKPSETLSLTCAVYGGSFSGYYWSWIRQPPGKGLEWIGEINHSGSTNYNPSLKSRIIMSVDTSKRQFSLKLRSATAADTAVYYCARWSPFSYKQMYDYWGQGTLVTVSS
notes: as for B1
[1]
  binding result: no binding
[2]
  binding result: binds
